Source: US9029508 (dated 2015)
Where two headings read alike, the source gives them in different places.

Tests used:
HGF [1] = biological target: T1, HGF (human, UniProt P14210); test: ELISA
HGF [2] = biological target: T1, HGF; test: competition
HGF [3] = biological target: T1, HGF; test: ELISA; remark: listed apart in the source
HGF [4] = biological target: T1, HGF; test: SPR
CD22 = CD22 (human, UniProt P20273); test: ELISA

T1 sequence (P14210 32-728): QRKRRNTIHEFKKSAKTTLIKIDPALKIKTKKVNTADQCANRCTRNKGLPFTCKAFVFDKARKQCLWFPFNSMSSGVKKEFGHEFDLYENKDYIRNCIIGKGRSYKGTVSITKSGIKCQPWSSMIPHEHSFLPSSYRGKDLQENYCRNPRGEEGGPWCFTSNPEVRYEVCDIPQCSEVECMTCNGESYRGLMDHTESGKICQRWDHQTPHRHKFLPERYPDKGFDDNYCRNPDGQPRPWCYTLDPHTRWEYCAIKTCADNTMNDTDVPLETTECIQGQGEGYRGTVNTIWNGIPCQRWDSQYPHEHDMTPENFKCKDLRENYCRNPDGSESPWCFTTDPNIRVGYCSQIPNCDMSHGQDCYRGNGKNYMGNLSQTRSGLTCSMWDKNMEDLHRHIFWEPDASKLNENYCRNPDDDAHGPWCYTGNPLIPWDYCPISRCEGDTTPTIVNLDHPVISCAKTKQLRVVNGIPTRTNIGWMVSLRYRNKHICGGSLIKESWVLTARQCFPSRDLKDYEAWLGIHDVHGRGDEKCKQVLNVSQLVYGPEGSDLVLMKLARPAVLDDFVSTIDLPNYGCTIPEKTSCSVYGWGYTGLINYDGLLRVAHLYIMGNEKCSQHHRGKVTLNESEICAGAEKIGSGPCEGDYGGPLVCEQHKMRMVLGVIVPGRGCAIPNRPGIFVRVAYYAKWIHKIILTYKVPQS

Row | EC50 (HGF [1]) [nM] | IC50 (HGF [2]) [nM] | EC50 (HGF [3]) [nM] | Kd (HGF [4]) [nM] | EC50 (CD22) [nM] | Binder
1 | 185 | > 100 | > 100 | 0.901 | – | DVD045 HGF arm (antibody, V domains shown, DVD-Ig inner) VH: QVQLVESGGGLVKPGGSLRLSCAASGFTFSDYYMSWIRQAPGKGLEWVSYISSSGSTIYYADSVKGRFTISRDNAKNSLYLQMNSLRAEDTAVYYCARDEYNSGWYVLFDYWGQGTLVTVSS VL: DIQMTQSPSSVSASVGDRVTITCRASQGISSWLAWYQQKPGKAPNLLIYEASSLQSGVPSRFGGSGSGTDFTLTISSLQPEDFATYYCQQANGFPWTFGQGTKVEIKR
2 | – | – | – | – | 3.44 | AB008 (antibody, V domains shown) VH: QVQLVQSGAEVKKPGSSVKVSCKASGYTFTSYWLHWVRQAPGQGLEWIGYINPRNDYTEYNQNFKDKATITADESTNTAYMELSSLRSEDTAFYFCARRDITTFYWGQGTTVTVSS VL: DIQLTQSPSSLSASVGDRVTMSCKSSQSVLYSANHKNYLAWYQQKPGKAPKLLIYWASTRESGVPSRFSGSGSGTDFTFTISSLQPEDIATYYCHQYLSSWTFGGGTKLEIKR
